The data set deals with the molecule itself. Kind of data set: SEC. Background: Size exclusion chromatography separates by hydrodynamic size, large species first.

B1: recombinant, soluble SRCR trimer (HIS6-SRCR, MARCO residues 400-520) (domain or fragment, human, UniProt Q9UEW3 400-520, looked up)
chain: GVKGSSGEQGVKGEKGERGENSVSVRIVGSSNRGRAEVYYSGTWGTICDDEWQNSDAIVFCRMLGYSKGRALYKVGAGTGQIWLDNVQCRGTESTLWSCTKNSWGHHDCSHEEDAGVECSV
With B1, the “stoichiometry N” value is 3.

As a reminder, the stoichiometry N is the number of molecules, sites or subunits per partner or assembly.

(Values after paper PMC4980223 (Immunology and cell biology, 2016).)
